B1: C10orf62 (parent)
chain: TSECPSDKDKSPESHKAKNESWIK

Variants of: B1
Test: protein stability index of a GFP-peptide fusion (GPS, HEK-293T) (PSI 1-6); higher = more stable
Settings: c terminus: a fixed tail appended
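Note: lentivirally expressed fusions sorted by FACS into six bins by GFP to DsRed ratio, PSI derived from sequencing read proportions per bin multiplied by bin number.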

| Variant | protein stability index |
| --- | --- |
| TSECPSDKDKSPESHKAKNPSWIK | 4.83 |
| TSECPSDKDKSPESHKAKNHSWIK | 4.51 |
| TSECPSDKDKSPESHKAKNQSWIK | 4.13 |
| TSECPSDKDKSPESHKAKNTSWIK | 4.39 |
| TSECPSDKDKSPESHKAKNMSWIK | 3.05 |
| TSECPSDKDKSPESHKAKNKSWIK | 4.37 |
| TSECPSDKDKSPESHKAKNEMWIK | 4.36 |
| TSECPSDKDKSPESHKAKNEDWIK | 5.57 |
| TSECPSDKDKSPESHKAKNEIWIK | 4.77 |
| TSECPSDKDKSPESHKAKNEFWIK | 5.12 |
| TSECPSDKDKSPESHKAKNEEWIK | 5.3 |
| TSECPSDKDKSPESHKAKNECWIK | 4.11 |
| TSECPSDKDKSPESHKAKNEGWIK | 4.34 |
| TSECPSDKDKSPESHKAKNEYWIK | 4.3 |
| TPECPSDKDKSPESHKAKNESWIK | 3.17 |
| TMECPSDKDKSPESHKAKNESWIK | 3.17 |
| TKECPSDKDKSPESHKAKNESWIK | 3.13 |
| TDECPSDKDKSPESHKAKNESWIK | 3.7 |
| TYECPSDKDKSPESHKAKNESWIK | 3.47 |
| TIECPSDKDKSPESHKAKNESWIK | 3.25 |
| TNECPSDKDKSPESHKAKNESWIK | 3.74 |
| TGECPSDKDKSPESHKAKNESWIK | 3.26 |
| TSECPSDKDKSPESHKAKGESWIK | 3.92 |
| TSECPSDKDKSPESHKAKVESWIK | 3.41 |

| Variant | protein stability index |
| --- | --- |
| TSECPSDKDKSPESHKAKQESWIK | 3.13 |
| TSECPSDKDKSPESHKAKEESWIK | 4.23 |
| TSECPSDKDKSPESHKAKPESWIK | 3.19 |
| TSECPSDWDKSPESHKAKNESWIK | 2.99 |
| TSECPSDIDKSPESHKAKNESWIK | 3.48 |
| TSECPSDVDKSPESHKAKNESWIK | 3.62 |
| TSECPSDSDKSPESHKAKNESWIK | 3.84 |
| TSECPSDHDKSPESHKAKNESWIK | 3.15 |
| TSECPSDNDKSPESHKAKNESWIK | 3.31 |
| TSECPSDKDKEPESHKAKNESWIK | 3.67 |
| TSECPSDKDKVPESHKAKNESWIK | 2.96 |
| TSECPSDKDKGPESHKAKNESWIK | 3 |
| TSECPSDKDKMPESHKAKNESWIK | 3.26 |
| TSECPSDKDKKPESHKAKNESWIK | 3.81 |
| TSECPSDKDKNPESHKAKNESWIK | 3.7 |
| TSECPSDKDKDPESHKAKNESWIK | 2.29 |
| TSECPSDKDKSPESHKAKNESWIH | 3.56 |
| TSECPSDKDKSPESHKAKNESWIM | 2.76 |
| TSECPSDKDKSPESHKAKNESWID | 2.99 |
| TSECPSDKDKSPESHKAKNESWIG | 3.77 |
| TSECPSDKDKSPESHKAKNESWIY | 3.16 |
| TSECPSDKDKSPESHKAKNESWIE | 2.15 |
| TSECPSDKDKSPESHKAKNESWIS | 3.48 |
| TSECPSDKDKSPESHKAKNESWIP | 4.73 |

| Variant | protein stability index |
| --- | --- |
| TSECPSDKDKSPESHKAKNESWIL | 2.66 |
| TSECPSDKSKSPESHKAKNESWIK | 3.11 |
| TSECPSDKTKSPESHKAKNESWIK | 3.34 |
| TSECPSDKLKSPESHKAKNESWIK | 2.54 |
| TSECPSDKFKSPESHKAKNESWIK | 2.16 |
| TSECPSDKKKSPESHKAKNESWIK | 2.25 |
| TSECPSDKVKSPESHKAKNESWIK | 2.9 |
| TSYCPSDKDKSPESHKAKNESWIK | 2.73 |
| TSKCPSDKDKSPESHKAKNESWIK | 2.92 |
| TSGCPSDKDKSPESHKAKNESWIK | 3.73 |
| TSCCPSDKDKSPESHKAKNESWIK | 3.01 |
| TSVCPSDKDKSPESHKAKNESWIK | 2.87 |
| TSWCPSDKDKSPESHKAKNESWIK | 2.63 |
| TSDCPSDKDKSPESHKAKNESWIK | 2.73 |
| TSQCPSDKDKSPESHKAKNESWIK | 2.94 |
| TSTCPSDKDKSPESHKAKNESWIK | 3.27 |
| TSECPSDKDKSPESHKAKNESHIK | 5.83 |
| TSECPSDKDKSPESHKAKNESPIK | 5.54 |
| TSECPSDKDKSPESHKAKNESMIK | 5.6 |
| TSECPSDKDKSPESHKAKNESGIK | 5.58 |
| TSECPSDKDKSPESHKAKNESEIK | 5.67 |
| TSECPSDKDKSPESHKAKNESIIK | 5.72 |
| TSECPSDKDKSPESHKAKNESSIK | 5.82 |
| TSECPSDKDKSPESHKAKNESAIK | 5.34 |

| Variant | protein stability index |
| --- | --- |
| TSECPSDKDKSPESHKAKNESQIK | 5.8 |
| TSECPSDKDKSPESHKAKNESRIK | 5.84 |
| TSECPSDKDKSPESQKAKNESWIK | 3.37 |
| TSECPSDKDKSPESNKAKNESWIK | 2.69 |
| TSECPSDKDKSPESSKAKNESWIK | 3.61 |
| TSECPSDKDKSPESPKAKNESWIK | 3.92 |
| TSECPSDKDKSPESMKAKNESWIK | 2.83 |
| TSECPSDKDKSPESFKAKNESWIK | 3 |
| TSECPSDKDKSPESIKAKNESWIK | 4.07 |
| TSECPSDKDKSPESAKAKNESWIK | 4.12 |
| TSECPSDKDKSWESHKAKNESWIK | 2.37 |
| TSECPSDKDKSQESHKAKNESWIK | 3.79 |
| TSECPSDKDKSCESHKAKNESWIK | 3.62 |
| TSECPSDKDKSIESHKAKNESWIK | 3.21 |
| TSECPSDKDKSDESHKAKNESWIK | 3.83 |
| TSECPSDKDKSEESHKAKNESWIK | 3.15 |
| TSECPSDKDKSLESHKAKNESWIK | 2.77 |
| TSECPSDKDKSPESHKALNESWIK | 4.18 |
| TSECPSDKDKSPESHKAYNESWIK | 4.32 |
| TSECPSDKDKSPESHKAFNESWIK | 4.09 |
| TSECPSDKDKSPESHKAENESWIK | 3.83 |
| TSECPSDKDKSPESHKAPNESWIK | 3.74 |
| TSECPSDKDKSPESHKACNESWIK | 4.37 |
| TSECTSDKDKSPESHKAKNESWIK | 2.9 |

| Variant | protein stability index |
| --- | --- |
| TSECASDKDKSPESHKAKNESWIK | 3.72 |
| TSECSSDKDKSPESHKAKNESWIK | 3 |
| TSECHSDKDKSPESHKAKNESWIK | 3.75 |
| TSECYSDKDKSPESHKAKNESWIK | 3.59 |
| TSECRSDKDKSPESHKAKNESWIK | 3.45 |
| TSECCSDKDKSPESHKAKNESWIK | 2.8 |
| TSECMSDKDKSPESHKAKNESWIK | 3.08 |
| TSECNSDKDKSPESHKAKNESWIK | 3.94 |
| TSECVSDKDKSPESHKAKNESWIK | 4.14 |
| TSECDSDKDKSPESHKAKNESWIK | 3.84 |
| TSECPSDKDKSPVSHKAKNESWIK | 2.77 |
| TSECPSDKDKSPRSHKAKNESWIK | 2.82 |
| TSECPSDKDKSPDSHKAKNESWIK | 2.98 |
| TSECPSDKDKSPNSHKAKNESWIK | 3.43 |
| TSECPSDKDKSPCSHKAKNESWIK | 3.35 |
| TSECPSDKDKSPGSHKAKNESWIK | 2.89 |
| TSECPSDKDKSPERHKAKNESWIK | 3.82 |
| TSECPSDKDKSPEAHKAKNESWIK | 3.7 |
| TSECPSDKDKSPEFHKAKNESWIK | 3.89 |
| TSECPSDKDKSPECHKAKNESWIK | 3.52 |
| TSECPSDKDKSPEWHKAKNESWIK | 4 |
| TSECPSDKDKSPEDHKAKNESWIK | 4.49 |
| TSECPSDKDKSPEPHKAKNESWIK | 3.2 |
| TSECPSDKDKSPESHMAKNESWIK | 3.85 |

| Variant | protein stability index |
| --- | --- |
| TSECPSDKDKSPESHCAKNESWIK | 3.75 |
| TSECPSDKDKSPESHSAKNESWIK | 3.79 |
| TSECPSDKDKSPESHVAKNESWIK | 3.95 |
| TSECPSDKDKSPESHFAKNESWIK | 3.85 |
| TSECPSDKDKSPESHWAKNESWIK | 3.33 |
| TSECPSDKDKSPESHQAKNESWIK | 3.29 |
| TSECPSDKDKSPESHDAKNESWIK | 4.2 |
| TSECPSDKDKSPESHYAKNESWIK | 3.6 |
| TSECPSDKDKSPESHAAKNESWIK | 4.49 |
| TSECPSDKDKSPESHRAKNESWIK | 3.02 |
| TSECPSDKDKSPESHNAKNESWIK | 3.67 |
| TSECPSDKDHSPESHKAKNESWIK | 3.53 |
| TSECPSDKDCSPESHKAKNESWIK | 3.95 |
| TSECPSDKDTSPESHKAKNESWIK | 3.04 |
| TSECPSDKDRSPESHKAKNESWIK | 2.81 |
| TSECPSDKDGSPESHKAKNESWIK | 2.63 |
| TSELPSDKDKSPESHKAKNESWIK | 3.74 |
| TSEMPSDKDKSPESHKAKNESWIK | 3.79 |
| TSEPPSDKDKSPESHKAKNESWIK | 3.39 |
| TSEAPSDKDKSPESHKAKNESWIK | 3.53 |
| TSENPSDKDKSPESHKAKNESWIK | 3.4 |
| TSEDPSDKDKSPESHKAKNESWIK | 3.17 |
| TSEFPSDKDKSPESHKAKNESWIK | 3.33 |
| TSETPSDKDKSPESHKAKNESWIK | 3.28 |

| Variant | protein stability index |
| --- | --- |
| TSESPSDKDKSPESHKAKNESWIK | 2.46 |
| TSECPSDKDKSPESHKWKNESWIK | 3.5 |
| TSECPSDKDKSPESHKGKNESWIK | 3.27 |
| TSECPSDKDKSPESHKDKNESWIK | 3.88 |
| TSECPSDKDKSPESHKKKNESWIK | 2.93 |
| TSECPSDKDKSPESHKYKNESWIK | 3.5 |
| TSECPSDKDKSPESHKHKNESWIK | 3.29 |
| TSECPSDKDKSPESHKRKNESWIK | 2.6 |
| TSECPSDKDKSPESHKEKNESWIK | 3.88 |
| TSECPSDKDKSPESHKAKNESWDK | 5.72 |
| TSECPSDKDKSPESHKAKNESWRK | 5.25 |
| TSECPSDKDKSPESHKAKNESWVK | 1.74 |
| TSECPSDKDKSPESHKAKNESWHK | 5.18 |
| TSECPSDKDKSPESHKAKNESWNK | 5.17 |
| TSECPSDKDKSPESHKAKNESWYK | 5.21 |
| TSECPSDKDKSPESHKAKNESWFK | 5.32 |
| NSECPSDKDKSPESHKAKNESWIK | 3.38 |
| RSECPSDKDKSPESHKAKNESWIK | 4.3 |
| CSECPSDKDKSPESHKAKNESWIK | 2.88 |
| FSECPSDKDKSPESHKAKNESWIK | 3.08 |
| YSECPSDKDKSPESHKAKNESWIK | 3.14 |
| KSECPSDKDKSPESHKAKNESWIK | 3.31 |
| DSECPSDKDKSPESHKAKNESWIK | 3.6 |
| TSECPIDKDKSPESHKAKNESWIK | 3.35 |

| Variant | protein stability index |
| --- | --- |
| TSECPTDKDKSPESHKAKNESWIK | 2.92 |
| TSECPGDKDKSPESHKAKNESWIK | 3.62 |
| TSECPQDKDKSPESHKAKNESWIK | 3.75 |
| TSECPDDKDKSPESHKAKNESWIK | 3.51 |
| TSECPPDKDKSPESHKAKNESWIK | 3.37 |
| TSECPWDKDKSPESHKAKNESWIK | 2.71 |
| TSECPNDKDKSPESHKAKNESWIK | 3.76 |
| TSECPSEKDKSPESHKAKNESWIK | 2.57 |
| TSECPSTKDKSPESHKAKNESWIK | 3.14 |
| TSECPSVKDKSPESHKAKNESWIK | 3.52 |
| TSECPSKKDKSPESHKAKNESWIK | 3.55 |
| TSECPSRKDKSPESHKAKNESWIK | 2.35 |
| TSECPSPKDKSPESHKAKNESWIK | 3.6 |
| TSECPSNKDKSPESHKAKNESWIK | 3.11 |
| TSECPSHKDKSPESHKAKNESWIK | 2.88 |
| TSECPSYKDKSPESHKAKNESWIK | 2.85 |
| TSECPSIKDKSPESHKAKNESWIK | 2.3 |
| TSECPSAKDKSPESHKAKNESWIK | 2.6 |
| TSECPSWKDKSPESHKAKNESWIK | 2.58 |
| TSECPSQKDKSPESHKAKNESWIK | 3.2 |
